In patent publication US12723078 (University of Texas, dated 2026):

What was measured:
[1] = biological target: T1, recombinant human LILRB1 protein (human, UniProt Q8NHL6 24-461); assay: Octet RED96, LILRB1 at 100, 33.3, 11.1 and 3.7 nM
T1 construct: ELISA and Octet methods say only 'recombinant LILRB1'; also called recombinant LILRB1; LILRB1 recombinant proteins

LILRA2 on reporter cells = biological target: T2, LILRA2 on reporter cells (UniProt Q8N149 24-483); assay: flow cytometry on 2B4 cells expressing the LILR, PE
T2 construct: whole, on cells
T2 sequence (Q8N149 24-483): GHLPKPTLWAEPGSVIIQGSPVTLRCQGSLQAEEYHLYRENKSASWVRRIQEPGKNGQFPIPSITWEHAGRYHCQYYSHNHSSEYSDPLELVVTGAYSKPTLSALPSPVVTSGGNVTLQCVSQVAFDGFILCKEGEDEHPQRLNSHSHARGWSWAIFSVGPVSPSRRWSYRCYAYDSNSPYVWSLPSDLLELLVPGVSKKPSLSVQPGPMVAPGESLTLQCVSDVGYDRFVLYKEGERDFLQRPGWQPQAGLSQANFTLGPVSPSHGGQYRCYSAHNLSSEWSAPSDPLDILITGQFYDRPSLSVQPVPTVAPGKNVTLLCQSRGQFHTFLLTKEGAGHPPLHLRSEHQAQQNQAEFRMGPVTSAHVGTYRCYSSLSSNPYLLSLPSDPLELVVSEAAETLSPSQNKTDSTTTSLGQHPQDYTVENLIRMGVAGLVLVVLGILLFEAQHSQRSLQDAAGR

LILRB2 on reporter cells = biological target: T3, LILRB2 on reporter cells (UniProt Q8N423 22-597); assay: as above
T3 construct: whole, on cells; The construct is not described
T3 sequence (Q8N423 22-597): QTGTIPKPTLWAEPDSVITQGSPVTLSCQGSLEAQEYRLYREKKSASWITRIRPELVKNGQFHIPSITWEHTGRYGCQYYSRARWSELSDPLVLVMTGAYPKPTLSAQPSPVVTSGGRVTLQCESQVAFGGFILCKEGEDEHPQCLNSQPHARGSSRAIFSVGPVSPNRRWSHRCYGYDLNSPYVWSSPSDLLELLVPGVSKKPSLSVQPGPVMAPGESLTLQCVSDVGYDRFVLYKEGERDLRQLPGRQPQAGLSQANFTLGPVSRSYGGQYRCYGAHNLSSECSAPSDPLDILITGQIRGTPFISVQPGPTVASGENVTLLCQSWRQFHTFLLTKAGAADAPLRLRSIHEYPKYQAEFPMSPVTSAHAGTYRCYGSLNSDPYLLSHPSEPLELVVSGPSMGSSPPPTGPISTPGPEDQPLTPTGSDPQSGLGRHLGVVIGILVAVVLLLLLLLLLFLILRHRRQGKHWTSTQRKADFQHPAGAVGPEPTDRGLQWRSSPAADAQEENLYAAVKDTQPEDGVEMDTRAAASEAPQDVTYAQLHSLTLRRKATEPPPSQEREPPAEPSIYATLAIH

LILRB4 on reporter cells = biological target: T4, LILRB4 on reporter cells (UniProt Q8NHJ6 22-448); assay: as above
T4 construct: whole, on cells

LILRA1 on reporter cells = biological target: T5, LILRA1 on reporter cells (UniProt O75019 17-489, limits assumed); assay: as above
T5 construct: whole, on cells
T5 sequence (O75019 17-489 limits assumed): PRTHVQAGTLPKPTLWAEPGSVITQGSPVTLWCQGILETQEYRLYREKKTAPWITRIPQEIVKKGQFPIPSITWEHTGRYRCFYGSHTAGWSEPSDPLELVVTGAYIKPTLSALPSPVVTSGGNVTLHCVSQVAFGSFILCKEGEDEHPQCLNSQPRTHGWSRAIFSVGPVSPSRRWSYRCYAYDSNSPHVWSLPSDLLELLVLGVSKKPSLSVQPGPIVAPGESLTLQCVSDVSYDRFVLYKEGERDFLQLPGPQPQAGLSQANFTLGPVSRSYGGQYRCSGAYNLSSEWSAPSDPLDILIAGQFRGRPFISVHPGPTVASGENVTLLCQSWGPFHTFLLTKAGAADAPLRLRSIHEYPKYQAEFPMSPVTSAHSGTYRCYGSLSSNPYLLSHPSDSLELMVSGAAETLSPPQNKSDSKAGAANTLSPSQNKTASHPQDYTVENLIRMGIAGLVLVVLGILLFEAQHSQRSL

LILRA5 on reporter cells = biological target: T6, LILRA5 on reporter cells (UniProt A6NI73 42-299); assay: as above
T6 construct: whole, on cells
T6 sequence (A6NI73 42-299): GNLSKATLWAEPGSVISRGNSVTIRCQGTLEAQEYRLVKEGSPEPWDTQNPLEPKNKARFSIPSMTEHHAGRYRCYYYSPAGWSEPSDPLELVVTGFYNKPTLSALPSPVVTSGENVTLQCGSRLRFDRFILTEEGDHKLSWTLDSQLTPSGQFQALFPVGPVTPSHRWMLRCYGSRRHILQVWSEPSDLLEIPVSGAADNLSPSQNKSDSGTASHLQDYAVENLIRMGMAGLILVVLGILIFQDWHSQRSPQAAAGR

LILRB5 on reporter cells = biological target: T7, LILRB5 on reporter cells (UniProt O75023 24-590, limits assumed); assay: as above
T7 construct: whole, on cells
T7 sequence (O75023 24-590 limits assumed): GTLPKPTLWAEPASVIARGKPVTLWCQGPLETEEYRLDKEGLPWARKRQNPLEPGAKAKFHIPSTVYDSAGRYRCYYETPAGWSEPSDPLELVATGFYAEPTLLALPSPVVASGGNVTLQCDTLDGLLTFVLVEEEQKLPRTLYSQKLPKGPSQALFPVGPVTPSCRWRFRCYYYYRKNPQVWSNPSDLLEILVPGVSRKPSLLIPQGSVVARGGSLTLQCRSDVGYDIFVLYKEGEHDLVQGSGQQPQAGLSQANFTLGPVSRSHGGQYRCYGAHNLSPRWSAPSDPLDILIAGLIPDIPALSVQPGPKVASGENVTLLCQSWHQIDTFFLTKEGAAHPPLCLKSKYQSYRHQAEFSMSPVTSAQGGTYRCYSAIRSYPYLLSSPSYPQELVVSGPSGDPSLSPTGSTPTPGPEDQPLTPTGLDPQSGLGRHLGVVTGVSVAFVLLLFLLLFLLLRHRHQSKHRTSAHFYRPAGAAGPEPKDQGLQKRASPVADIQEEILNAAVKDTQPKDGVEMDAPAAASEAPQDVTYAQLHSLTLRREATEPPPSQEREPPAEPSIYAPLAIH

[2] = biological target: T8, LILRB1 expressed on cell surface (human, UniProt Q8NHL6 24-650); assay: as above
T8 construct: One entry is used for LILRB1 on reporter cells and on NK cells; also called LILRB1 NFAT-GFP reporter cell; LILRB1 reporter cells
T8 sequence (Q8NHL6 24-650 limits assumed): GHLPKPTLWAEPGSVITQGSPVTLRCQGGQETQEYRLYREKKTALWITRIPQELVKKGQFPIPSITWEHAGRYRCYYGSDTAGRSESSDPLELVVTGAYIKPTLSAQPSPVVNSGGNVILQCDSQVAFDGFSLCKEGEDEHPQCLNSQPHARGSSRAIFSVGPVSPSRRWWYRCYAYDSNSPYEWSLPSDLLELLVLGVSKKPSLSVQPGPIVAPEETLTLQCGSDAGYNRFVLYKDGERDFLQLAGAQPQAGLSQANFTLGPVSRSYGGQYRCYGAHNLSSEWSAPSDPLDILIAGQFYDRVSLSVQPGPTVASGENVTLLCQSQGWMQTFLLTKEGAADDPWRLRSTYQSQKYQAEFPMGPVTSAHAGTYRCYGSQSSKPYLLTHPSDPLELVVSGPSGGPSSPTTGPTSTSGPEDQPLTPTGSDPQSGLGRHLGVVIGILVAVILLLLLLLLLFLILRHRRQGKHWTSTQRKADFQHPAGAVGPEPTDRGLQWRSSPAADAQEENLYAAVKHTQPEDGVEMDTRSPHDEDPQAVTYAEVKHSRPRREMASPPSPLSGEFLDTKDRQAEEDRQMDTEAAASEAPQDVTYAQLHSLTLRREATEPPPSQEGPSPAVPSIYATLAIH

LILRA6 on reporter cells = biological target: T9, LILRA6 on reporter cells (UniProt Q6PI73 24-481); assay: as above
T9 construct: whole, on cells
T9 sequence (Q6PI73 24-481): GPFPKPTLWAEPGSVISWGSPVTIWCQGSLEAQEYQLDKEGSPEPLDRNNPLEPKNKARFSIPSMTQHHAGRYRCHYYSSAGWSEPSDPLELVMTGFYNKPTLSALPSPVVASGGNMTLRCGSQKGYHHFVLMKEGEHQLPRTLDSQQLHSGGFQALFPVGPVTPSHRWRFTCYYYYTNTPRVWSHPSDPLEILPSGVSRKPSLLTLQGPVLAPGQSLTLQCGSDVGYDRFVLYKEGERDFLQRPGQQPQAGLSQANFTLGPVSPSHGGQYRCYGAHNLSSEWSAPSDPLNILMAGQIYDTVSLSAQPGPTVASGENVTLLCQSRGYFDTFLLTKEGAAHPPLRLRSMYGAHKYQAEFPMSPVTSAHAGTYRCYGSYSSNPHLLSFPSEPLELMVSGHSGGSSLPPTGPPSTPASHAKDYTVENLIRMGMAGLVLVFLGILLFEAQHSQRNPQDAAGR

LILRA4 on reporter cells = biological target: T10, LILRA4 on reporter cells (UniProt P59901 24-499); assay: as above
T10 construct: whole, on cells
T10 sequence (P59901 24-499): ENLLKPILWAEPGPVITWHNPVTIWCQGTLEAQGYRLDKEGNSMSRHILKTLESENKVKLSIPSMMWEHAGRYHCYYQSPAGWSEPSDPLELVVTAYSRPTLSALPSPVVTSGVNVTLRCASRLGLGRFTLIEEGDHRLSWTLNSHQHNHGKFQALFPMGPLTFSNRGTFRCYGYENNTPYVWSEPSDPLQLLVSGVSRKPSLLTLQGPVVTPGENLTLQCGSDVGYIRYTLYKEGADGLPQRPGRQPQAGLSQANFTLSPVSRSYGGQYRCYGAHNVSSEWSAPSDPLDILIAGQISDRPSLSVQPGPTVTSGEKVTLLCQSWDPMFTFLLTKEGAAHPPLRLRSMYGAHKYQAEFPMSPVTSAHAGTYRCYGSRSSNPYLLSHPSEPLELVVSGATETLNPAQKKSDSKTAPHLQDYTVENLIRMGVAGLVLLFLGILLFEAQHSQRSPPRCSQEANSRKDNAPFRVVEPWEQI

LILRB3 on reporter cells = biological target: T11, LILRB3 on reporter cells (UniProt O75022 24-631, limits assumed); assay: as above
T11 construct: whole, on cells

D2-Fc = biological target: T12, D2-Fc (human, UniProt Q8NHL6); assay: ELISA on LILRB1 domain-Fc fusion proteins
T12 construct: D2 domain; also called LILRB1 D2-Fc
T12 sequence (Q8NHL6 116-221 limits assumed): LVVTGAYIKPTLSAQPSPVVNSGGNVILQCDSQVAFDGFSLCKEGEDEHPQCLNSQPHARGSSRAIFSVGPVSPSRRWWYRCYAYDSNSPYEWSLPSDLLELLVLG

T1 sequence (Q8NHL6 24-461 limits assumed): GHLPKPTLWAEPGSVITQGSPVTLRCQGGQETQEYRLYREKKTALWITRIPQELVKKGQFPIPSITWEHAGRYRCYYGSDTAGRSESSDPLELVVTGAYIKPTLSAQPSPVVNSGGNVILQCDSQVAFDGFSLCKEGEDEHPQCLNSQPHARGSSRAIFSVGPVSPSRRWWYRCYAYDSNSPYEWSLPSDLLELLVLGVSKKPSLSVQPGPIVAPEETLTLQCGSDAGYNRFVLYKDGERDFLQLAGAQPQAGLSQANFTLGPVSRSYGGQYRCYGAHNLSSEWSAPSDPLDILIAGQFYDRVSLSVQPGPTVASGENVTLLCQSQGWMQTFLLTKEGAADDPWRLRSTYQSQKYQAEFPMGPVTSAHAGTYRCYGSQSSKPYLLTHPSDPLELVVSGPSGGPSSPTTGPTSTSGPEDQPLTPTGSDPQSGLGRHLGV

B1: B1-176 rabbit antibody (antibody, V domains shown)
VH: QSLEESEGGLVKPGGTLTLTCTASGFSFSSSYCMCWVRQAPGKGLELIACIYTDSSGATYYASWAKGRFTISKSSSTTITLQMTSLTAADTATYFCARGWDYEDPGYTDTTYFSLWGPGTLVTVSS
VL: ELDLTQTPSSVEAAVGGTVTIKCQASQTIYTNLAWYQQKPGQPPNLLIYAASTLASGVSSRFKGSGSGTEFTLTISDLECADAATYYCQSYYGSSTTGNGFGGGTEVEIK
notes: Full-length rabbit IgG, kappa; Variable genes were cloned into a rabbit IgG expression vector and expressed in Expi293F cells
Kd [1]: < 10 pM
percent of cells in the gate (LILRA2 on reporter cells): 0.11%
percent of cells in the gate (LILRB2 on reporter cells): 0.676%
percent of cells in the gate (LILRB4 on reporter cells): 0.181%
percent of cells in the gate (LILRA1 on reporter cells): 0.124%
percent of cells in the gate (LILRA5 on reporter cells): 0.101%
percent of cells in the gate (LILRB5 on reporter cells): 0.29%
percent of cells in the gate [2]: 99.2%
percent of cells in the gate (LILRA6 on reporter cells): 0.123%
percent of cells in the gate (LILRA4 on reporter cells): 0.0736%
percent of cells in the gate (LILRB3 on reporter cells): 0.0698%
binding result (D2-Fc): no binding (tested: not given)
